We go through two substances from article PMC5017159.

Test [1] deals with human heat shock protein 70 (hHsp70) (human) (UniProt P0DMV8). Briefly: BLI; Octet Red; biotinylated hHsp70 immobilised on streptavidin tips, dipped into E. coli GAPDH (39.5, 59.3, 88.9, 133.3 and 200 nM) in PBS; association 600 s, dissociation 900 s; 1:1 model. A general note: Biolayer interferometry detects binding as a change in optical thickness at a sensor tip.
For another test, the target named is human GAPDH (human) (UniProt P04406). Briefly: BLI; Octet Red; biotinylated human GAPDH immobilised on streptavidin tips, dipped into hHsp70 (2.05, 5.12, 12.8, 32 and 80 nM) in PBS; association 600 s, dissociation 900 s; 1:1 model.
UniProt P04406, sequence (P04406 whole entry): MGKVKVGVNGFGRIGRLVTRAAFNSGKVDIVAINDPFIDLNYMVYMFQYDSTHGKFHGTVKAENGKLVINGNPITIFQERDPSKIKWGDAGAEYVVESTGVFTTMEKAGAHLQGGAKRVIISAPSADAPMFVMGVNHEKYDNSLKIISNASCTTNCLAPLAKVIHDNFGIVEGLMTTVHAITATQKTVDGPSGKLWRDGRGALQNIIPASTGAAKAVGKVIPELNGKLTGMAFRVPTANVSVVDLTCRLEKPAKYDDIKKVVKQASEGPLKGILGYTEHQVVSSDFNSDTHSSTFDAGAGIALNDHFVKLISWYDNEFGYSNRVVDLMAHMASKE

As to “E. coli glyceraldehyde 3-phosphate deshydrogenase (GAPDH), recombinant (from UniProt P0A9B2 1-331) (enzyme)”, in test [1], the dissociation constant (Kd) worked out at 8.2 nM, the koff was 0.00024 s⁻¹ and the on-rate constant (kon) stood at 29300 M⁻¹ s⁻¹.
In the test with human GAPDH (human), “human heat shock protein 70 (hHsp70) (from UniProt P0DMV8 1-641) (natural protein)” gave an equilibrium dissociation constant (Kd) of 1.3 nM, a koff of 9.3e-05 s⁻¹ and a kon of 72400 M⁻¹ s⁻¹.

A word on the Kd: it is the concentration at which binding is half-saturated. Lower therefore signals a tighter complex. A word on the koff: it is the first-order rate constant of dissociation. A lower koff goes with slow dissociation. Broadly, the kon is a measure of how fast the partners come together.
